{"source": "patent US20070202043A1", "about": "(ARIUS RESEARCH, published 2007)", "binders": {"B1": {"name": "AR52A301.5 monoclonal antibody (hybridoma IDAC 141205-03) (antibody, mouse IgG1, V domains shown)", "VH": "EVQLQQSGPELVKPGASVKISCKASGYTFTDYNMHWVKQSHGKSLEWIGYIYPYNGGTGYNQRFKNKATLTVDISSSTAYMELRSLTSEDSAVYYCAREEDYYGFDYWGQGTTLTVSS", "VL": "DVVMTQTPLSLPVSLGQDASISCRSSQSLVHSYGNTYLHWYLQKPGQSPKLLIYKVSNRFSGVPDRFSGSGSGTDFTLKISRVEAEDMGVYFCSQSTHVYTFGGGTKLEIK", "notes": "Murine IgG1, kappa from the hybridoma; also called IDAC 141205-03 antibody"}}, "key": {"[1]": {"target": "T1, human TROP-2 on the surface of human cell lines (the AR52A301.5 antigen) (human, UniProt P09758 27-323)", "T1 construct": "whole, on cells; The cell lines are not transfected; also called IDAC 141205-03 antigen; TROP-2 antigenic moiety", "T1 sequence (looked up)": "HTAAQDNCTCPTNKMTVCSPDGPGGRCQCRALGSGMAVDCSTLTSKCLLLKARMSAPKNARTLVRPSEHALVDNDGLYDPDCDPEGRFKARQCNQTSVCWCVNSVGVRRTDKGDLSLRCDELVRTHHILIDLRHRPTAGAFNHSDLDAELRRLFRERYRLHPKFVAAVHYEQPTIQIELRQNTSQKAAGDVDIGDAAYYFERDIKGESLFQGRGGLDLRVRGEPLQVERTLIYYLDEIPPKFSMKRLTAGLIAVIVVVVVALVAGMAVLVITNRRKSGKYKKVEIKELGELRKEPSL", "assay": "flow cytometry, 20 micrograms/mL antibody, OV2008 ovarian cancer cells", "description": "(§1) All cell lines, except for the majority of ovarian cancer cell lines, were obtained from the American Type Tissue Collection (ATCC, Manassas, Va.).\n(§2) Cells were prepared for FACS by initially washing the cell monolayer with DPBS (without Ca⁺⁺ and Mg⁺⁺). Cell dissociation buffer (INVITROGEN, Burlington, ON) was then used to dislodge the cells from their cell culture plates at 37° C. After centrifugation and collection, the cells were resuspended in DPBS containing MgCl₂, CaCl₂ and 2 percent fetal bovine serum at 4° C. […] Flow cytometric acquisition of the cells was assessed by running samples on a FACSarray™ using the FACSarray™ System Software (BD Biosciences, Oakville, ON). The forward (FSC) and side scatter (SSC) of the cells were set by adjusting the voltage and amplitude gains on the FSC and SSC detectors."}, "[2]": {"target": "T1, human TROP-2 on the surface of human …", "assay": "flow cytometry, 20 micrograms/mL antibody, PC-3 prostate cancer cells", "description": "as §1, §2"}, "[3]": {"target": "T1, human TROP-2 on the surface of human …", "assay": "flow cytometry, 20 micrograms/mL antibody, FaDu head and neck cancer cells", "description": "as §1, §2"}, "[4]": {"target": "T1, human TROP-2 on the surface of human …", "assay": "flow cytometry, 20 micrograms/mL antibody, MDA-MB-468 breast cancer cells", "description": "as §2"}, "[5]": {"target": "T1, human TROP-2 on the surface of human …", "assay": "flow cytometry, 20 micrograms/mL antibody, C-13 ovarian cancer cells", "description": "as §2"}, "[6]": {"target": "T1, human TROP-2 on the surface of human …", "assay": "flow cytometry, 20 micrograms/mL antibody, DU-145 prostate cancer cells", "description": "as §2"}, "[7]": {"target": "T1, human TROP-2 on the surface of human …", "assay": "flow cytometry, 20 micrograms/mL antibody, BxPC-3 pancreatic cancer cells", "description": "as §2"}, "[8]": {"target": "T1, human TROP-2 on the surface of human …", "assay": "flow cytometry, 20 micrograms/mL antibody, Hey ovarian cancer cells", "description": "as §2"}, "[9]": {"target": "T1, human TROP-2 on the surface of human …", "assay": "flow cytometry, 20 micrograms/mL antibody, OVCA-429 ovarian cancer cells", "description": "as §1, §2"}, "[10]": {"target": "T1, human TROP-2 on the surface of human …", "assay": "flow cytometry, 20 micrograms/mL antibody, NCI-H520 lung cancer cells (weaker binding)", "description": "as §1, §2"}, "[11]": {"target": "T1, human TROP-2 on the surface of human …", "assay": "flow cytometry, 20 micrograms/mL antibody, Colo-205 colon cancer cells", "description": "as §2"}, "[12]": {"target": "T1, human TROP-2 on the surface of human …", "assay": "cell-based or functional assay"}, "[13]": {"target": "T1, human TROP-2 on the surface of human …", "assay": "flow cytometry, 20 micrograms/mL antibody, OCC-1 ovarian cancer cells", "description": "as §1, §2"}, "[14]": {"target": "T1, human TROP-2 on the surface of human …", "assay": "flow cytometry, 20 micrograms/mL antibody, HT-29 colon cancer cells", "description": "as §2"}, "[15]": {"target": "T1, human TROP-2 on the surface of human …", "assay": "flow cytometry, 20 micrograms/mL antibody, MCF-7 breast cancer cells", "description": "as §1, §2"}, "[16]": {"target": "T1, human TROP-2 on the surface of human …", "assay": "flow cytometry, 20 micrograms/mL antibody, PL45 pancreatic cancer cells", "description": "as §1, §2"}, "[17]": {"target": "T1, human TROP-2 on the surface of human …", "assay": "flow cytometry, 20 micrograms/mL antibody, Hs888.Lu non-cancer lung cells (weaker binding)", "description": "as §2"}, "[18]": {"target": "T1, human TROP-2 on the surface of human …", "assay": "flow cytometry, 20 micrograms/mL antibody, OVCAR-3 ovarian cancer cells (printed twice in the paragraph, once as OVAR-3)", "description": "as §1, §2"}, "[19]": {"target": "T1, human TROP-2 on the surface of human …", "assay": "flow cytometry, 20 micrograms/mL antibody, T.Tn esophageal cancer cells", "description": "as §2"}, "[20]": {"target": "T1, human TROP-2 on the surface of human …", "assay": "flow cytometry, 20 micrograms/mL antibody, DLD-1 colon cancer cells", "description": "as §2"}}}
{"binder": "B1", "values": [{"measurement": "mean fluorescence intensity fold increase above isotype control", "setting": "[1]", "result": 32.7, "unit": "fold"}, {"measurement": "mean fluorescence intensity fold increase above isotype control", "setting": "[2]", "result": 5, "unit": "fold"}, {"measurement": "mean fluorescence intensity fold increase above isotype control", "setting": "[3]", "result": 59.8, "unit": "fold"}, {"measurement": "mean fluorescence intensity fold increase above isotype control", "setting": "[4]", "result": 22.7, "unit": "fold"}, {"measurement": "mean fluorescence intensity fold increase above isotype control", "setting": "[5]", "result": 38.7, "unit": "fold"}, {"measurement": "mean fluorescence intensity fold increase above isotype control", "setting": "[6]", "result": 3.9, "unit": "fold"}, {"measurement": "mean fluorescence intensity fold increase above isotype control", "setting": "[7]", "result": 29.4, "unit": "fold"}, {"measurement": "mean fluorescence intensity fold increase above isotype control", "setting": "[8]", "result": 5.9, "unit": "fold"}, {"measurement": "mean fluorescence intensity fold increase above isotype control", "setting": "[9]", "result": 3.4, "unit": "fold"}, {"measurement": "mean fluorescence intensity fold increase above isotype control", "setting": "[10]", "result": 2.1, "unit": "fold"}, {"measurement": "mean fluorescence intensity fold increase above isotype control", "setting": "[11]", "result": 38.6, "unit": "fold"}, {"measurement": "cytotoxicity on OVCAR-3 cells relative to the positive control cycloheximide", "setting": "[12]", "result": 53, "unit": "percent"}, {"measurement": "mean fluorescence intensity fold increase above isotype control", "setting": "[13]", "result": 17.8, "unit": "fold"}, {"measurement": "mean fluorescence intensity fold increase above isotype control", "setting": "[14]", "result": 6.7, "unit": "fold"}, {"measurement": "mean fluorescence intensity fold increase above isotype control", "setting": "[15]", "result": 16, "unit": "fold"}, {"measurement": "mean fluorescence intensity fold increase above isotype control", "setting": "[16]", "result": 12.9, "unit": "fold"}, {"measurement": "mean fluorescence intensity fold increase above isotype control", "setting": "[17]", "result": 2.6, "unit": "fold"}, {"measurement": "mean fluorescence intensity fold increase above isotype control", "setting": "[18]", "result": 22.1, "unit": "fold"}, {"measurement": "mean fluorescence intensity fold increase above isotype control", "setting": "[19]", "result": 18.6, "unit": "fold"}, {"measurement": "mean fluorescence intensity fold increase above isotype control", "setting": "[20]", "result": 82.8, "unit": "fold"}]}
